Results reported in article PMC4420465, “A Novel Type II NAD^+-Specific Isocitrate Dehydrogenase from the Marine Bacterium Congregibacter litoralis KT71” (PLoS ONE, 2015).
Positions count from the first letter of the chain named. Names may count otherwise.

B1: ClIDH (Congregibacter litoralis KT71) (protein)
chain: MSNKIKVEKPLVILHGDEMAQIAFERLLEQFVTSRLDINLLEVDLSAEKRFTTNGQVVLDAIDALIEHGVGIKNAGMTVNRSQLDELLAKYPDVKESELDKLATKSPNGAIRKGIGGNITREDIEFQNLTSVRPDWIDRDIEVDTMDSGGLDFSYSELSNATGVAKVMFVGSSGDPVELHRRTLKKGDPWMLANNSLEEVEAWAHRFFQRALDEKRDIYLGLKDTVVPGYDGVMRAAIEAIYERDYKEKVAAAGLKYHYELIDAQAARIVSNPPERALWGVPDNVSGMKLYKLVQQLKHYGLPERKANVSISRMSAGGGDQYGSYNTPAPEDGIIKVVVDGVEKHARMVKANDPILFMSNDRDAIKDWVKQVFKDASINKKEVYFGLKREFVNYDEVYSSIILEIRKELAALDTPPPSFMIMRPSRQLSKMICDPPRWGLYPAQNLDGDIFSDISAALGGSLATASSVIKSKDGTLLYEAPHGTAHDLYLRYLETDGKEAHFNSSALIFAVANALEEMARREENEALADYAQRLKAALIDTVAQGTITGDLKGKTLDPESENVVDMYGFLDAIEANLNAS
notes: full length 580 residues, 6xHis tag (pET-28b, upstream, kept), E. coli Rosetta (DE3), about 64 kDa subunit, homohexamer
B2: ClIDH (Congregibacter litoralis KT71; D487R/L488H) (protein)
chain: B1 chain with D487R, L488H
notes: as for B1

How the values were obtained:
[1] = biological target: Congregibacter litoralis KT71 NAD+-specific isocitrate dehydrogenase (recombinant ClIDH) (Congregibacter litoralis KT71); assay: AUC; sedimentation velocity, Beckman XL-A, 20°C, 116,000 g, continuous c(s) distribution; protein of more than 90% purity after gel filtration; single run
[2] = biological target: Congregibacter litoralis KT71 NAD+-specific isocitrate dehydrogenase (recombinant ClIDH) (Congregibacter litoralis KT71); assay: SEC; gel filtration on a 10/300 Superdex 200 column, 0.05 M potassium phosphate buffer (pH 7.0), 0.15 M NaCl, 0.01% sodium azide; calibrated with ovalbumin, conalbumin, aldolase, ferritin, thyroglobulin
[3] = substrate: NC(=O)c1ccc[n+]([C@@H]2O[C@H](COP(=O)(O)OP(=O)(O)OC[C@H]3O[C@@H](n4cnc5c(N)ncnc54)[C@H](O)[C@@H]3O)[C@@H](O)[C@H]2O)c1; assay: purified protein; assay type: biochemical, Congregibacter litoralis; conditions: Mn2+ 2 mM, DL-isocitrate 1.5 mM, 35 mM Tris-HCl pH 7.5, 25°C, varied: cofactor
[4] = substrate: O=C(O)CC(C(=O)O)C(O)C(=O)O; assay: purified protein; assay type: biochemical, Congregibacter litoralis; conditions: Mn2+ 2 mM, NAD+ 1 mM, 35 mM Tris-HCl pH 7.5, 25°C
[5] = substrate: NC(=O)c1ccc[n+]([C@@H]2O[C@H](COP(=O)(O)OP(=O)(O)OC[C@H]3O[C@@H](n4cnc5c(N)ncnc54)[C@H](OP(=O)(O)O)[C@@H]3O)[C@@H](O)[C@H]2O)c1; assay: purified protein; assay type: biochemical, Congregibacter litoralis; conditions: Mn2+ 2 mM, DL-isocitrate 1.5 mM, 35 mM Tris-HCl pH 7.5, 25°C, varied: cofactor

| Molecule | stoichiometry N [1] | stoichiometry N [2] | Km [3] [µM] | kcat [3] [s⁻¹] | kcat/Km [3] [M⁻¹ s⁻¹] | Km [4] [µM] | Km [5] [µM] | kcat [5] [s⁻¹] | kcat/Km [5] [M⁻¹ s⁻¹] |
| --- | --- | --- | --- | --- | --- | --- | --- | --- | --- |
| Congregibacter litoralis KT71 NAD+-specific isocitrate dehydrogenase (recombinant ClIDH) (enzyme) | 6 | 6 | – | – | – | – | – | – | – |
| B1 | – | – | 309.1 ± 11.2 | 84.7 | 270000 | 90.8 | – | – | – |
| B2 | – | – | 663.8 ± 48.6 | 9.7 | 15000 | – | 156.7 ± 4.8 | 55.1 | 350000 |
